Assay results: US20050182242A1, “Global analysis of protein activities using proteome chips” (priority 2001, published 2005)

Experiments:
Settings in all cases: liposome binding signal on yeast proteome chip, Cy3-streptavidin detection
[1] = tested on: phosphatidylcholine (PC) liposomes; test: Yeast proteome chip probed with PC liposomes
Procedure, shortened: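 Signal comes from Cy3- or Cy5-streptavidin recognising 1% (w/w) biotin-DHPE carried in every liposome. Liposomes were PC alone or PC containing 5% (w/w) of a single phosphoinositide, applied to arrayed GST-fusion yeast proteins for 1 h at RT.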

PI(3,4,5)P3 liposomes = test: Yeast proteome chip probed with PI(3,4,5)P3 liposomes
PI(3,4)P2 liposomes = test: Yeast proteome chip probed with PI(3,4)P2 liposomes
PI(3)P liposomes = test: Yeast proteome chip probed with PI(3)P liposomes
Description: To identify PI-binding proteins in yeast, liposomes were used as probes because the liposome provides the most relevant physiological condition to assay the interactors. Six types of liposomes were used. Each contains phosphatidylcholine (“PC”) with 1% (w/w) N-(biotinoyl)-1,2-dihexadecanoyl-sn-glycero-3-phosphoethanolamine, triethylammonium salt (biotin DHPE). The biotinylated lipid serves as a label that can be detected by Cy3-streptavidin (21). In addition to PC, the five other liposomes contain either 5% (w/w) PI(3)P, PI(4)P, PI(3,4)P2, PI(4,5)P2, or PI(3,4,5)P3 (FIG. 3A).
The protein-liposome interaction was assayed as follows. Appropriate amounts of each lipid in chloroform were mixed and dried under nitrogen. The lipid mixture was resuspended in TBS buffer by vortexing. The liposomes were created by sonication. Blocked proteome chips were washed three to five times in PBS buffer, and the extra liquid on the glass surface was removed by tapping the slides vertically on a KIMWIPE™. 200 μl of liposome solution was added to the proteome chip and immediately covered by a hydrophobic plastic cover slip (GRACE BIO-LAB™, USA). After trapped air bubbles were removed, the chip was incubated in a humidity chamber at RT for one hour. To remove the cover slip, the chip was immersed into large volume of PBS buffer (50 ml), so that the slip would float away. The chip was then moved to a second PBS bath (>50 ml) and washed 3×5 min with shaking at RT. After removing extra liquid on the surface of the chip, about 100 μl of Cy3 or Cy5 conjugated streptavidin (PIERCE™, USA; 1:2000 to 1:4000 dilution) was added to the surface and covered by a hydrophobic plastic cover slip (GRACE BIO-LABS™, USA). The chip was incubated for greater than 30 min in the dark at RT. The chip was then washed as described above. To completely remove the liquid on the chip, the chip was spun to dryness at 1500-2000 rpm for 5-10 min at RT.
• 1. S. Fields, Y. Kohara, D. J. Lockhart, Proc. Natl. Acad. Sci. 96, 8825 (1999); A. Goffeau et al., Science 274, 563 (1996). • 2 P. Ross-Macdonald et al., Nature 402, 413 (1999); J. L., DeRisi, V. R. Iyer, P. O. Brown, Science 278, 680 (1997); E. A. Winzeler et al., Science 285, 901 (1999). P. Uetz et al., Nature 403, 623 (2000); T. Ito et al., Proc. Natl. Acad. Sci. USA. 97, 1143 (2000) • 3 H. Zhu, M. Snyder, Curr. Opin. Chem. Biol. 5, 40 (2001). • 4 M. R. Martzen et al., Science 286, 1153 (1999). • 5 H. Zhu et al., Nat. Genet. 26, 283 (2000). • 6 G. MacBeath, S. L. Schreiber, Science 289, 1760 (2000). • 7 A. Caveman, J. Cell Sci. 113, 3543 (2000). • 8 P. Arenkov et al., Anal. Biochem 278, 123 (2000). • 9 D. A. Mitchell, T. K. Marshall, R. J. Deschenes, Yeast 9, 715 (1993). The expression vector pEGH was created by inserting an RGS-HisX6 epitope tag between the GST gene and the polycloning site of pEG(KG). The yeast ORFs were cloned using the strategy described previously (5), except every step was done in a 96-well format. Plasmid DNAs confirmed by DNA sequencing were reintroduced into both yeast (Y258) and E. coli (DH5a). […] 0.1 mM calcium was present in buffers in all subsequent steps. The chip was washed three times with PBS at RT. Cy3-conjugated streptavidin (Jackson IR, USA) (1:5000 dilution) was added to the chip and incubated for 30 min at RT. After extensive washing, the chip was spun dry and scanned using a microarray scanner; the data was subsequently acquired with the GENEPIX™ array densitometry software (Axon, USA). • 12 S. S. Hook, A. R. Means, Annu. Rev. Pharmacol. Toxicol.41, 471 (2001). • 13 M. S. Cyert, R. Kunisawa, D. Kaim, J. Thorner, Proc. Natl. Acad. Sci. USA 88, 7376 (1991). • 14 D. A. Stirling, K. A. Welch, M. J. Stark, EMBO J. 13, 4329 (1994). • 15 F. Bohl, Kruse, EMBO J. 19, 5514 (2000); E. Bertrand et al., Mol. Cell 2, 437 (1998). • 16 D. C. Winter, E. Y. Choe, R. Li, Proc. Nat. Acad Sci. USA 96, 7288 (1999). • 17 C.

PI(4)P liposomes = test: Yeast proteome chip probed with PI(4)P liposomes
PI(4,5)P2 liposomes = test: Yeast proteome chip probed with PI(4,5)P2 liposomes

| Molecule | PC [1] | PI(3, 4, 5)P3 (PI(3,4,5)P3 liposomes) | PI(3, 4)P2 (PI(3,4)P2 liposomes) | PI(3)P (PI(3)P liposomes) | PI(4)P (PI(4)P liposomes) | PI(4, 5)P2 (PI(4,5)P2 liposomes) |
| --- | --- | --- | --- | --- | --- | --- |
| KCS1: yeast GST-HisX6 fusion protein on proteome chip (protein, UniProt Q12494 1-1050, looked up, GST-HisX6 tag, yeast GST-HisX6 fusion protein on proteome chip) Inositol hexakisphosphate …: MDTSHEIHDKIPDTLREQQQHLRQKESEGCITTLKDLNVPETKKLSSVLHGRKASTYLRIFRDDECLADNNNGVDSNNGGSVTCADKITRSEATPKSVPEGLQVSEKKNNPDTLSSSLSSFILSNHEEPAIKPNKHVAHRNNITETGQGSGEDIAKQQSHQPQVLHHQTSLKPIQNVDEGCISPKSTYQESLHGISEDLTLKPVSSATYYPHKSKADSGYEEKDKMENDIDTIQPATINCASGIATLPSSYNRHTFKVKTYSTLSQSLRQENVNNRSNEKKPQQFVPHSESIKEKPNTFEQDKEGEQADEEEDEGDNEHREYPLAVELKPFTNRVGGHTAIFRFSKRAVCKALVNRENRWYENIELCHKELLQFMPRYIGVLNVRQHFQSKDDFLSDLDQENNGKNDTSNENKDIEVNHNNNDDIALNTEPTGTPLTHIHSFPLEHSSRQVLEKEHPEIESVHPHVKRSLSSSNQPSLLPEVVLNDNRHIIPESLWYKYSDSPNSAPNDSYFSSSSSHNSCSFGERGNTNKLKRRDSGSTMINTELKNLVIREVFAPKCFRRKRNSNTTTMGNHNARLGSSPSFLTQKSRASSHDASNTSMKTLGDSSSQASLQMDDSKVNPNLQDPFLKKSLHEKISNALDGSHSVMDLKQFHKNEQIKHKNSFCNSLSPILTATNSRDDGEFATSPNYISNAQDGVFDMDEDTGNETINMDNHGCHLDSGKNMIIKSLAYNVSNDYSHHDIESITFEETSHTIVSKFILLEDLTRNMNKPCALDLKMGTRQYGVDAKRAKQLSQRAKCLKTTSRRLGVRICGLKVWNKDYYITRDKYFGRRVKVGWQFARVLARFLYDGKTIESLIRQIPRLIKQLDTLYSEIFNLKGYRLYGASLLLMYDGDANKSNSKRKKAANVKVNLIDFARCVTKEDAMECMDKFRIPPKSPNIEDKGFLRGVKSLRFYLLLIWNYLTSDMPLIFDEVEMNDMISEEADSNSFTSATGSKINFNSKWDWLDEFDKEDEEMYNDPNSKLRQKWRKYELIFDAEPRYNDDAQVSD | 42.85 | 36.22 | 60.91 | 0.00 | 35.27 | – |
| MIS1: yeast GST-HisX6 fusion protein on proteome chip (protein, UniProt P09440 35-975, looked up, GST-His6 fusion tag, yeast GST-HisX6 fusion protein on proteome chip) C-1-tetrahydrofolate …: YHILSGRKLAQSIREKANDEIQAIKLKHPNFKPTLKIIQVGARPDSSTYVRMKLKASKDSNVDCIIEKLPAEITEVELLKKISDINDDDSIHGLLIQLPLPRHLDETTITNAVDFKKDVDGFHRYNAGELAKKGGKPYFIPCTPYGCMKLLEEAHVKLDGKNAVVLGRSSIVGNPIASLLKNANATVTVCHSHTRNIAEVVSQADIVIAACGIPQYVKSDWIKEGAVVIDVGINYVPDISKKSGQKLVGDVDFDSVKEKTSYITPVPGGVGPMTVAMLVSNVLLAAKRQFVESEKLPVIKPLPLHLESPVPSDIDISRAQSPKHIKQVAEELGIHSHELELYGHYKAKISPNIFKRLESRENGKYVLVAGITPTPLGEGKSTTTMGLVQALSAHLGKPSIANVRQPSLGPTLGVKGGAAGGGYAQVIPMDEFNLHLTGDIHAISAANNLLAAAIDTRMFHEATQKNDSTFYKRLVPRKKGIRKFTPSMQRRLKRLDIEKEDPDALTPEEVKRFARLNINPDTITIRRVVDINDRMLRQITIGEAATEKGFTRTTGFDITVASELMAILALSKSLHEMKERIGRMVIGADYDNKPVTVEDIGCTGALTALLRDAIKPNLMQTLEGTPVMVHAGPFANISIGASSVIADLMALKLVGSEKNPLNDKNIHEPGYVVTEAGFDFAMGGERFFDIKCRSSGLVPDAVVLVATVRALKSHGGAPNVKPGQSLPKEYTEENIDFVAKGVSNLVKQIENIKTFGIPVVVAINRFETDSQAEIEVIKKAALNAGASHAVTSNHWMEGGKGAVELAHAVVDATKEPKNFNFLYDVNSSIEDKLTSIVQKMYGGAKIEVSPEAQKKIDTYKKQGFGNLPICIAKTQYSLSHDPSLKGVPRGFTFPIRDVRASIGAGYLYALAAEIQTIPGLSTYAGYMAVEVDDDGEIEGLF | 71.02 | 43.65 | 86.34 | 3.50 | 65.32 | – |
| SXM1: yeast GST-HisX6 fusion protein on proteome chip (protein, UniProt Q04175 1-944, looked up, GST-His6 tag, yeast GST-HisX6 fusion protein on proteome chip) Importin beta SMX1: MVQEQAILSCIEQTMVADAKIIKEAEQQLFEFQKQPGFTSFLLNIVSDDNFALNVRLSSAIYLKNKIHRSWDTKREDGIKADEKLSIKERLIETLVKNCENNHIRPILTETINGILVGQEDWDLAPIIKNLLSSGDASYIYPGLLLLFQLCKAHRWDMVGSRDYIDSVIEELFPIVEGIASNIGSQTDYRSNEILYLILKSFKYACLNNLPQYFSQPERIMSWVQLHLYLCSKPLPVEVMELDPADRSLDKRVKVNKWGFGNLNRFLQRYNKITKAITKEFIDYIFNTIVPIILREFFKDIEAWGNNSLWLSDSSLYFLISFLEKCVTIDQLYPLIEPHLQIIFENVIFPCLCANEQSIELLEDDQEEYTRRYFDINREGSTPDAASADFIFLIGSKRPEKLNNILPFINDIFTRFDANSSDINMAFKEEGALRTLSNLFSFIDEPSVLENIFGHFIVPLLSQDKYMFLVARSLETIALYSEEFKDMNILSQLFELTYTNFLNSNVLPVQIEAADAIKCLIVSNPQIHPAVSAHVPGMMEKLLKLSKIFEIDILSEVMEALVERFSDELSPFAKDLASNLVEQFLRIAQALVENPSETYSASDQEQEIQASGLLQTMTTMVMSMNKVPLIESLAPVVKFVVLHAQISFITEAVDLLDALTISSHLLYNQIAPPIWELLHDILDSFQTYAMDYFEAYSIFFETIVMTGFPQDQTYVQPLLEILSAKLESEVDYDIEHVMQILMYFALSMRDIPLFSKAIKVSTNDELGLDSKCIVKLGLANLFAKPIETLQIMENEGFTINFFTNWFNEKFYSVFAIKLQVLVILTLLKMPEVPNSVSPLLNNLTNKLVELTLSLPKAIRNRDAVTEGKSLEGDLTPEEEEEYFIECDDDMKETVLDQINVFQEVHTFFKNLQNEDAGKYEKIINYLDESKRDSLQVILEFVSQH | 51.95 | 23.40 | 19.15 | – | 30.48 | 27.22 |
